Data taken from patent US20170198014A1, “POLYPEPTIDES AND THEIR USE FOR TREATING INFLUENZA” ([…] ITS CENTER FOR COMMERCIALIZATION, priority 2014, published 2017).

B1: GIVNVPNPNTTKYQQLARTAVAIYNYHEQAHLCFVENLNVKEQGNYYYITLAACDDAGKKAIYEAKIGVVESAGWTGVEEFKLV (protein)
chain: GIVNVPNPNTTKYQQLARTAVAIYNYHEQAHLCFVENLNVKEQGNYYYITLAACDDAGKKAIYEAKIGVVESAGWTGVEEFKLV
B2: GIVNVPNCNTTKYQQLARTAVAIYNYHEQAHLTFVENLNCKEQGNYYYITLAATDDAGKKAIYEAKIGVVESAGWTGVEEFKLV (protein)
chain: GIVNVPNCNTTKYQQLARTAVAIYNYHEQAHLTFVENLNCKEQGNYYYITLAATDDAGKKAIYEAKIGVVESAGWTGVEEFKLV
B3: ASGMLAISMDTDKISNSFEDCKYFLIELKSAGWTNTIFNDESGKEEIVKMGVDAIICKNISEENYKKFSKKIEIYHAEGDDVNKNISLFLEGELSKISNP (protein)
chain: ASGMLAISMDTDKISNSFEDCKYFLIELKSAGWTNTIFNDESGKEEIVKMGVDAIICKNISEENYKKFSKKIEIYHAEGDDVNKNISLFLEGELSKISNP

Key:
[1] = stability after loop truncation and trimerization; settings: trimerized, truncation of 3 residues after position 43
[2] = target: HA of H3N2 A/Hong Kong/1/1968 (Influenza A virus, UniProt Q91MA7)
[3] = target: H1 (A/NewCaledonia/20/1999) (Influenza A virus, UniProt Q6WG00); settings: read-out: affinity constant via yeast surface display

Molecule	stability [1]	binding when trimerized [2]	Kd [3]
B1	stability is improved	binds extremely tightly	–
B2	stability is improved	binds extremely tightly	–
B3	–	–	0.0232 µM
